Data published in patent publication US20170157165.

Molecular target: FGF2 (Homo sapiens) (UniProt P09038)
Assay: cell_activity
Conditions: 5' C6; 3' idT; negative control; HUVEC proliferation, FGF2 0.58 nM

Sequence of FGF2 (Homo sapiens) (P09038 135-288): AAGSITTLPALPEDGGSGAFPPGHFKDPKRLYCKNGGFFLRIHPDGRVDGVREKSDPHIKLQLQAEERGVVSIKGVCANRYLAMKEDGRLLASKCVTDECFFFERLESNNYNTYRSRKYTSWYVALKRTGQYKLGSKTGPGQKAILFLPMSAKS

Q: For “negative control RNA (Macugen sequence without PEG)”, which IC50 is on record?
A: > 0.4 µM
